# From patent US6660837B1, “Modified protein derived from protein kinase N” (Kirin Beer Kabushiki Kaisha, priority 1995, dated 2003)
# Assays:
# PKN = molecular target: T1, PKN (Rattus norvegicus, UniProt Q63433); assay: Phosphorylation of recombinant GST-NF domains by PKN; type: biochemical; settings: GST-head-rod domain of each NF subunit
# T1 construct: The purified PKN (1 ng) from rat testis cytosol; from tissue; host or cells: rat testis (cytosol / soluble fraction)
# Method: (§1) Soluble cytosolic extract of spinal cord or purified NF proteins were boiled for 5 min to destroy endogenous protein kinase activity prior to their use as phosphate acceptors. The phosphorylation of NF preparations was carried out at 30° C. in an assay mixture containing 20 mM Tris/HCl at pH 7.5, 8 mM MgCl2, 100 μM ATP, 185 kBq of [γ-^32P]ATP, each subunit of NF, 20 ng/ml of purified PKN from rat testis, and with/without 40 μM arachidonic acid as indicated in each experiment. Reactions were terminated after various times by the addition of an equal volume of Laemli's sample buffer, and separation was performed on 7% SDS-PAGE. The gels were dried under vacuum and exposure to BAS1000 bio-imaging analyzer. Dephosphorylation of NF proteins was conducted with calf intestine alkaline phosphatase according to a method described in Carden, M. J. et al., J. Biol. Chem. 260, 9805-9817 (1985) and terminated after boiling for 5 min.
# (2) Phosphorylation of Recombinant NF by PKN To identify the region containing the phosphorylation site of NF by PKN, GST-head-rod and -tail domain of each subunit of NFs were bacterially synthesized (Example 8), and subjected to in vitro phosphorylation assay in the same manner as described above. […] The GST-tail domain of each subunit was not labeled at all. PKN also phosphorylated the GST-head-rod domain of vimentin (data not shown).
# [1] = molecular target: T2, purified PKN from rat testis (Rattus norvegicus, UniProt Q63433); assay: Phosphorylation of native NF by PKN; type: biochemical; settings: native bovine NF, with arachidonic acid; estimated by image quant
# T2 construct: The purified PKN (1 ng) from rat testis cytosol; from tissue; host or cells: rat testis (cytosol / soluble fraction)
# T2 sequence (Q63433 whole entry): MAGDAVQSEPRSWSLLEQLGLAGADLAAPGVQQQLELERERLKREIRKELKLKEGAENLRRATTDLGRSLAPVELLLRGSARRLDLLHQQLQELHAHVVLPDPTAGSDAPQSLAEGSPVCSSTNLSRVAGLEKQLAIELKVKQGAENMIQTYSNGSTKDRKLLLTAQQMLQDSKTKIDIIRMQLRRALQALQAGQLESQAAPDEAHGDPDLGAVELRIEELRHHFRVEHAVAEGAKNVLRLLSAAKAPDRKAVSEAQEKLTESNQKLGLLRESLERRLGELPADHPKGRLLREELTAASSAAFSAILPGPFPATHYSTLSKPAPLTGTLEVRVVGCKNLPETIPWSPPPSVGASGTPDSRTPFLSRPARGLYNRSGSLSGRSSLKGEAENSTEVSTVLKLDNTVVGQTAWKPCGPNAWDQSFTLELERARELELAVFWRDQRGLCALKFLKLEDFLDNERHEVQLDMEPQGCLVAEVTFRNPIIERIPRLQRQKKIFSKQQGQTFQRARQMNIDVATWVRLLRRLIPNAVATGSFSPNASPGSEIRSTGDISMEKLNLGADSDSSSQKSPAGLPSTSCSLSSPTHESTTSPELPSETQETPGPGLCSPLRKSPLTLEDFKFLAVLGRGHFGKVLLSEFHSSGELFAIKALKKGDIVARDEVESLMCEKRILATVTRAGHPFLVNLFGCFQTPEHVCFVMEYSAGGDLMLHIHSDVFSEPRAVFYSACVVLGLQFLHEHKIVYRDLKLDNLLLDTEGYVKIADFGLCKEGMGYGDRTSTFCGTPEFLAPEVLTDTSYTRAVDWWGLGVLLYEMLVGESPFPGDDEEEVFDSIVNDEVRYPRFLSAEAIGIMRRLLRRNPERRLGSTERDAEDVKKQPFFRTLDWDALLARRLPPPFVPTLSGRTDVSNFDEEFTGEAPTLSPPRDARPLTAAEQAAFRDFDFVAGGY
# Method: Native NFs were prepared from bovine spinal cords according to a method described in Hisanaga, S. & Hirokawa, N., J. Mol. Biol. 202, 297-305 (1988). Kinase assay was carried out according to the following method.
# as §1
# RhoA^Val14 CLVL^− = molecular target: T3, RhoA^Val14 CLVL^− (Homo sapiens, UniProt P61586, G14V); assay: Yeast two-hybrid, truncated PKN with RhoA^Val14CLVL^−; type: binding; settings: yeast L40
# T3 construct: expressed in transfected cells; host or cells: yeast strain L40
# T3 sequence (P61586 1-189 G14V): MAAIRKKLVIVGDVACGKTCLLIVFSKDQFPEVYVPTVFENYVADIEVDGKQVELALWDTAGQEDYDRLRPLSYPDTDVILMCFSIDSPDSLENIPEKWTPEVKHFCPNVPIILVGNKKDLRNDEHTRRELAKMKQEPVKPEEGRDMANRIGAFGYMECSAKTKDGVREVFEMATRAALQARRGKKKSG
# Text: The cDNA fragments encoding various length of human PKN were inserted into the vector pBTM116 (Example 7) in frame with the upstream LexA DNA-binding domain sequences or the vector pVP16 (Example 7) in frame with the upstream VP16 transcription activation domain sequences. The cDNA fragments encoding human RhoA, RhoA^Val14, and RhoA^Ala37 were obtained by digesting pGEX-RhoA, pGEX-RhoA^Val14, and pGEX-RhoA^Ala37 (Example 1) with restriction enzymes, respectively, then cloned into pBTM116 and pVP16.
# The expression plasmids were transfected into yeast L40 cells and plated on semi-solid media lacking tryptophan and leucine. Interaction was examined using a filter lift assay for the β-galactosidase activity in the same manner as in Example 6. […]
# [2] = molecular target: T4, in vitro translated PKNN2 (Homo sapiens, UniProt Q16512); assay: In vitro binding of GST-HuActSkl fragments to PKNN2; settings: resistant to 0.5% Triton X-100/0.5 M NaCl wash
# T4 construct: made in house; host or cells: in vitro translation in rabbit reticulocyte lysate (Promega)
# T4 sequence (Q16512 1-474): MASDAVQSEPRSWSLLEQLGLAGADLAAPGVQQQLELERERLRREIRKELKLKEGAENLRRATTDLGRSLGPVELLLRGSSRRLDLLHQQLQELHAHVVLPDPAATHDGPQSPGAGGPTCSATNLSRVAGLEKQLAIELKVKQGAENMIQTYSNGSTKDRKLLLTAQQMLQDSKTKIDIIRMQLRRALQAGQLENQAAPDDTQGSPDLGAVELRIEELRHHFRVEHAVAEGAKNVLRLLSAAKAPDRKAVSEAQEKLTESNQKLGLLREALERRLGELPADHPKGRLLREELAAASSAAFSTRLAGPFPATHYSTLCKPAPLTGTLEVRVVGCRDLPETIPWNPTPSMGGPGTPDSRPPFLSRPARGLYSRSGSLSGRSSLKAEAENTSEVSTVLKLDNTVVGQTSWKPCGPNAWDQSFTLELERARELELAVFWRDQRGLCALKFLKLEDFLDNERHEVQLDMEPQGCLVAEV
# Method: In vitro transcription for the N-terminal region of PKN (the amino acid sequence 1-474, this region being designated as PKNN2 (Example 8)) was performed as described in Example 8. For in vitro translation, cRNAs were translated in rabbit reticulocyte lysate (Promega) in the presence of [^35S] methionine as described in Example 8.
# For in vitro binding experiment, 2 μl of in vitro translated PKNN2 was mixed with 5 μg of each GST-α-actinin fusion protein or with 25 μg of GST alone in 400 μl of GST binding buffer (20 mM Tris/HCl at pH 7.5, 0.5 mM DTT, 150 mM NaCl, 0.05% Triton-X100, 1 mM EDTA, 1 μg/ml leupeptin) and incubated for 1 hr at 4° C. After addition of 25 μl of glutathione-Sepharose 4B pretreated with 10 mg/ml of E. coli extract to block nonspecific binding, the binding reaction was continued for additional 30 min at 4° C. The glutathione-Sepharose 4B was then washed four times in GST washing buffer (20 mM Tris/HCl at pH 7.5, 0.5 mM DTT, 1 mM EDTA, 1 μg/ml leupeptin) containing 0.5 M NaCl and 0.5% Triton X-100, and further washed with GST washing buffer. Bound proteins were eluted with GST elution buffer (100 mM Tris/HCl at pH 7.5, 10 mM glutathione, 120 mM NaCl, 1 mM EDTA, 0.5 mM DTT, 1 μg/ml leupeptin) and were subjected to SDS-PAGE. The binding was visualized and quantitated by an imaging analyzer (FUJI BAS1000).
# T1 sequence (Q63433 whole entry, the tested form may be a part): as the sequence (Q63433 whole entry) above
molecule,measurement,setting,value
"NFM: neurofilament subunit M; native bovine in b342, GST-head-rod domain fusion in b344 (protein, UniProt O77788 2-926, looked up) Neurofilament medium …: SYTLDSLGNPSAYRRVTETRSSFSRISGSPSSGFRSQSWSRGSPSTVSSSYKRSALAPRLTYSSAMLSSAESSLDFSQSSSLLDGGSGPGGDYKLSRSNEKEQIQGLNDRFAGYIEKVHYLEQQNKEIEAEIQALRQKQASHAQLGDAYDQEIRELRATLEMVNHEKAQVQLDSDHLEEDIHRLKERFEEEARLRDDTEAAIRALRKDIEESSLVKVELDKKVQSLQDEVAFLRSNHEEEVADLLAQIQASHITVERKDYLKTDISTALKEIRSQLESHSDQNMHQAEEWFKCRYAKLTEAAEQNKEAIRSAKEEIAEYRRQLQSKSIELESVRGTKESLERQLSDIEERHNHDLSSYQDTIQQLENELRGTKWEMARHLREYQDLLNVKMALDIEIAAYRKLLEGEETRFSTFAGSITGPLYTHRQPSIAISSKIQKTKVEAPKLKVQHKFVEEIIEETKVEDEKSEMEEALTAITEELAVSVKEEVKEEEAEEKEEKEEAEEEVVAAKKSPVKATAPELKEEEGEKEEEEGQEEEEEEEEAAKSDQAEEGGSEKEGSSEKEEGEQEEEGETEAEGEGEEAAAEAKEEKKMEEKAEEVAPKEELAAEAKVEKPEKAKSPVAKSPTTKSPTAKSPEAKSPEAKSPTAKSPTAKSPVAKSPTAKSPEAKSPEAKSPTAKSPTAKSPAAKSPAPKSPVEEVKPKAEAGAEKGEQKEKVEEEKKEAKESPKEEKAEKKEEKPKDVPEKKKAESPVKAESPVKEEVPAKPVKVSPEKEAKEEEKPQEKEKEKEKVEEVGGKEEGGLKESRKEDIAINGEVEGKEEEQETKEKGSGGEEEKGVVTNGLDVSPGDEKKGGDKSEEKVVVTKMVEKITSEGGDGATKYITKSVTVTQKVEEHEETFEEKLVSTKKVEKVTSHAIVKEVTQSD",relative 32P incorporation into GST-head-rod domain (ratio NFH:NFM:NFL),PKN,10
same,extent of maximal phosphorylation by PKN per mol subunit of protein,[1],about 6 mol/mol
"NFL: neurofilament subunit L; native bovine in b342, GST-head-rod domain fusion in b344 (protein, UniProt P02548 2-555, looked up) Neurofilament light …: SSFSYEPYYSTSYKRRYVETPRVHISSVRSGYSTARSAYSSYSAPVSSSLSVRRSYSSSSGSLMPSLESLDLSQVAAISNDLKSIRTQEKAQLQDLNDRFASFIERVHELEQQNKVLEAELLVLRQKHSEPSRFRALYEQEIRDLRLAAEDATNEKQALQGEREGLEETLRNLQARYEEEVLSREDAEGRLMEARKGADEAALARAELEKRIDSLMDEIAFLKKVHEEEIAELQAQIQYAQISVEMDVSSKPDLSAALKDIRAQYEKLAAKNMQNAEEWFKSRFTVLTESAAKNTDAVRAAKDEVSESRRLLKAKTLEIEACRGMNEALEKQLQELEDKQNADISAMQDTINKLENELRTTKSEMARYLKEYQDLLNVKMALDIEIAAYRKLLEGEETRLSFTSVGSLTTGYTQSSQVFGRSAYGGLQTSSYLMSARSFPSYYTSHVQEEQIEVEETIEAAKAEEAKDEPPSEGEAEEEEKEKEEAEAEAEAEAEAEAEEEEGAQEEEAAKEDAEEAKEEEGGEGEEAEETKEAEEEEKKDEGAGEEQATKKKD",relative 32P incorporation into GST-head-rod domain (ratio NFH:NFM:NFL),PKN,2
same,extent of maximal phosphorylation by PKN per mol subunit of protein,[1],about 1 mol/mol
"amino acid sequence 3-135: truncated human PKN, amino acid sequence 3-135 in SEQ ID NO: 1, two-hybrid fusion (protein, UniProt Q16512 3-135, looked up, fragment, two-hybrid fusion) SDAVQSEPRSWSLLEQLGLAGADLAAPGVQQQLELERERLRREIRKELKLKEGAENLRRATTDLGRSLGPVELLLRGSSRRLDLLHQQLQELHAHVVLPDPAATHDGPQSPGAGGPTCSATNLSRVAGLEKQL",interaction with RhoA^Val14 CLVL^− (β-galactosidase filter assay),RhoA^Val14 CLVL^−,interacted
"HuActSkl (423-653): human skeletal muscle type α-actinin fragment, GST fusion (protein, left off: a dimerising Fc or GST, human skeletal muscle type α-actinin fragment, GST fusion) ILLQKDYESASLTEVRALLRKHEAFESDLAAHQDRVEQIAAIAQELNELDYHDAVNVNDRCQKICDQWDRLGTLTQKRREALERMEKLLETIDQLHLEFAKRAAPFNNWMEGAMEDLQDMFIVHSIEEIQSLITAHEQFKATLPEADGERQSIMAIQNEVEKVIQSYNIRISSSNPYSTVTMDELRTKWDKVKQLVPIRDQSLQEELARQHANERLRRQFAAQANAIGPWI",binding of in vitro translated PKNN2 to the fragment,[2],strongly bound
"HuActSkl (653-837): human skeletal muscle type α-actinin fragment, GST fusion (protein, left off: a dimerising Fc or GST, human skeletal muscle type α-actinin fragment, GST fusion) IQNKMEEIARSSIQITGALEDQMNQLKQYEHNIINYKNNIDKLEGDHQLIQEALVFDNKHTNYTMEHIRVGWELLLTTIARTINEVETQILTRDAKGITQEQMNEFRASFNHFDRRKNGLMDHEDFRACLISMGYDLGEAEFARIMTLVDPNGQGTVTFQSFIDFMTRETADTDTAEQVIASFRI",binding of in vitro translated PKNN2 to the fragment,[2],strongly bound
"HuActSkl (486-607): human skeletal muscle type α-actinin fragment, spectrin-like repeat 3, GST fusion (protein, UniProt P35609 486-607, looked up, fragment, GST fusion, human skeletal muscle type α-actinin fragment, spectrin-like repeat 3, GST fusion) ICDQWDRLGTLTQKRREALERMEKLLETIDQLHLEFAKRAAPFNNWMEGAMEDLQDMFIVHSIEEIQSLITAHEQFKATLPEADGERQSIMAIQNEVEKVIQSYNIRISSSNPYSTVTMDEL",binding of in vitro translated PKNN2 to the fragment,[2],strongly bound
"HuActSkl (604-719): human skeletal muscle type α-actinin fragment, GST fusion (protein, left off: a dimerising Fc or GST, human skeletal muscle type α-actinin fragment, GST fusion) MDELRTKWDKVKQLVPIRDQSLQEELARQHANERLRRQFAAQANAIGPWIQNKMEEIARSSIQITGALEDQMNQLKQYEHNIINYKNNIDKLEGDHQLIQEALVFDNKHTNYTMEH",binding of in vitro translated PKNN2 to the fragment,[2],not
